Results: patent US12318427

How the values were obtained:
Experiment in all cases: cell_activity
[1] = system: ZFP-TF SBS 57930 (artificial); details: AAV6 SYN1, human iPSC-derived neurons, 32 days, ELISA
[2] = system: ZFP-TF SBS 65918 R(-5)Q in F1 and F5 (Qm5 phosphate contact mutants) (artificial); details: AAV6 SYN1, human iPSC-derived neurons, 32 days, ELISA; combined with 57890 >10-fold
[3] = system: ZFP-TF SBS 57890 (artificial); details: AAV9 hSYN1 in humanized tau mice, 6 wk; mouse tau ~81%; human iPSC neurons tau protein reduced 2-fold (p208)

| Sequence | activity (fold tau protein reduction) [1] | activity (fold tau protein reduction) [2] | activity (% human tau mRNA repression) [3] |
| --- | --- | --- | --- |
| CGGCAGAAGGTGGGCGGTGGCGGCGGCG (double strand) [MAPT target site of 57930/65918] | > 5 | > 2 | – |
| TGGTGCTGGAGCTGGTGGGTGGCGGAGA (double strand) [MAPT target site of 57890] | – | – | 60 |
